Measured values taken from PMC10388305, “Synthesis and Evaluation of a Monomethyl Auristatin E—Integrin αvβ6 Binding Peptide–Drug Conjugate for Tumor Targeted Drug Delivery” (Journal of Medicinal Chemistry, 2023).
Where two headings read alike, the source gives them in different places.

Test: Biodistribution, BxPC-3 pancreatic xenograft tumor mouse model
Type: in vivo, mice
Conditions: female, athymic nude, iv, total radioactivity, γ-counter, mean ± SD; for tissue uptake at 4 h / tissue uptake at 24 h / tissue uptake at 48 h: i.v.
Protocol: All animal procedures conformed to the Animal Welfare Act and were approved by the University of California Davis Institutional Animal Care and Use Committee. All mice used for in vivo work were female athymic nude mice (6–8 weeks old) purchased from Charles River Laboratories (Wilmington, MA). For PET imaging and biodistribution studies, female athymic nude mice (6–8 weeks old) were injected subcutaneously with 3 × 10^6 DX3puro and 3 × 10^6 DX3puroβ6 cells in serum free DMEM on the right and left flank, respectively, or with 5 × 10^6 BxPC-3 cells in serum free RPMI 1640/Matrigel (1/1 v/v). Studies commenced once tumors reached a maximum diameter of ∼0.5 cm, approximately 3 weeks after inoculation. Food and water were available ad libitum. [^64Cu]PDC-1 was formulated in isotonic 0.9% saline to pH = 7.2 and administered intravenously (i.v.) via a catheter into the tail vein.
Aliquots of the formulated [^64Cu]PDC-1 in isotonic 0.9% saline (4.81–5.74 MBq, 1.7–2.1 μg, 0.26–0.31 nmol, 100 μL, pH 7.2) were injected i.v. as described above. Following the conscious uptake period, the mice were anesthetized (5% isoflurane), euthanized, and dissected (n ≥ 3/model/time point [4, 24, and 48 h]; the 48 h time point also included the imaging animals sacrificed after the PET scans). Tissues were collected, washed, weighed, and radioactivity measured in a γ-counter. Calibrated, decay-corrected radioactivity was expressed as the percentage of injected dose per gram of tissue (% ID/g). Data are reported as mean ± SD. […] For in vivo blocking studies, DOTA-2 (50 mg/kg, 205 nmol, 1.4 mg in 100 μL 0.9% saline) was injected i.v. into two animals/tumor model 10 min prior to [^64Cu]PDC-1. The animals were sacrificed after 4 h, tissues collected, washed, weighed, and radioactivity measured in a γ-counter.
Biodistribution data of [64Cu]PDC-1 in BxPC-3 tumor model.
Table S4. Biodistribution of [ 64Cu]PDC-1 in mice bearing a BxPC-3 xenograft tumor. Tissue uptake is
expressed as the mean of the percentage of injected dose per gram of tissue ± standard deviation (n = 4/
time point; n = 6 at 48 h); an = 3, bn = 5.

Work on `CC[C@H](C)[C@@H]([C@@H](CC(=O)N1CCC[C@H]1[C@H](OC)[C@@H](C)C(=O)N[C@H](C)[C@@H](O)c1ccccc1)OC)N(C)C(=O)[C@@H](NC(=O)[C@H](C(C)C)N(C)C(=O)OCc1ccc(NC(=O)[C@H](CCCNC(N)=O)NC(=O)[C@@H](NC(=O)CCOCCOCCNC(=O)CCN2C(=O)CC(SC[C@H](NC(=O)CN3CCN(CC(=O)O)CCN(CC(=O)O)CCN(CC(=O)O)CC3)C(=O)NCCOCCOCCOCCOCCOCCOCCOCCOCCOCCOCCOCCOCCOCCOCCOCCOCCOCCOCCOCCOCCOCCOCCOCCOCCOCCOCCOCCOCCC(=O)N[C@@H](CC(N)=O)C(=O)N[C@@H](C)C(=O)N[C@H](C(=O)N3CCC[C@H]3C(=O)N[C@@H](CC(N)=O)C(=O)N[C@@H](CC(C)C)C(=O)N[C@@H](CCCNC(=N)N)C(=O)NCC(=O)N[C@@H](CC(=O)O)C(=O)N[C@@H](CC(C)C)C(=O)N[C@@H](CCC(N)=O)C(=O)N[C@H](C(=O)N[C@@H](CC(C)C)C(=O)N[C@@H](C)C(=O)N[C@@H](CCC(N)=O)C(=O)N[C@@H](CCCNC(=N)N)C(=O)N[C@H](C(=O)N[C@@H](C)C(=O)N[C@@H](CCCNC(=N)N)C(=O)N[C@H](C(=O)NCCOCCOCCOCCOCCOCCOCCOCCOCCOCCOCCOCCOCCOCCOCCOCCOCCOCCOCCOCCOCCOCCOCCOCCOCCOCCOCCOCCOCCC(N)=O)[C@@H](C)O)C(C)C)C(C)C)C(C)C)C2=O)C(C)C)cc1)C(C)C` (stereo partly drawn) [[^64Cu]PDC-1, metal not drawn] yielded a tissue uptake at 4 h (BxPC-3 (αvβ6 +) tumor, 4 h p.i., n = 3, read-out: BxPC-3 (αvβ6 +) tumor uptake) of 4.61 ± 1.44 %ID/g, a tissue uptake at 24 h (BxPC-3 (αvβ6 +) tumor, 24 h p.i., n = 4, read-out: BxPC-3 (αvβ6 +) tumor uptake) of 3.73 ± 0.44 %ID/g and a tissue uptake at 48 h (BxPC-3 (αvβ6 +) tumor, 48 h p.i., n = 6, read-out: BxPC-3 (αvβ6 +) tumor uptake) of 2.93 ± 0.8 %ID/g. For the same molecule, the tissue uptake at 4 h (bladder, 4 h p.i., n = 4, read-out: Bladder uptake) was 2.06 ± 0.2 %ID/g, the tissue uptake at 24 h (bladder, 24 h p.i., n = 4, read-out: Bladder uptake) was 1.84 ± 0.45 %ID/g and the tissue uptake at 48 h (bladder, 48 h p.i., n = 6, read-out: Bladder uptake) was 1.28 ± 0.46 %ID/g. The tissue uptake at 4 h (blood, 4 h p.i., n = 4, read-out: Blood uptake) was 0.13 ± 0.02 %ID/g, the tissue uptake at 24 h (blood, 24 h p.i., n = 4, read-out: Blood uptake) was 0.31 ± 0.04 %ID/g and the tissue uptake at 48 h (blood, 48 h p.i., n = 6, read-out: Blood uptake) was 0.28 ± 0.04 %ID/g. For the same molecule, the tissue uptake at 4 h (bone, 4 h p.i., n = 4, read-out: Bone uptake) was 0.36 ± 0.1 %ID/g, the tissue uptake at 24 h (bone, 24 h p.i., n = 4, read-out: Bone uptake) was 0.43 ± 0.03 %ID/g and the tissue uptake at 48 h (bone, 48 h p.i., n = 6, read-out: Bone uptake) was 0.23 ± 0.11 %ID/g. The tissue uptake at 4 h (brain, 4 h p.i., n = 4, read-out: Brain uptake) was 0.04 %ID/g, the tissue uptake at 24 h (brain, 24 h p.i., n = 4, read-out: Brain uptake) was 0.08 ± 0.01 %ID/g and the tissue uptake at 48 h (brain, 48 h p.i., n = 6, read-out: Brain uptake) was 0.08 ± 0.03 %ID/g. For the same molecule, the tissue uptake at 4 h (gall bladder, 4 h p.i., n = 4, read-out: Gall bladder uptake) was 3.99 ± 1.49 %ID/g, the tissue uptake at 24 h (gall bladder, 24 h p.i., n = 4, read-out: Gall bladder uptake) was 2.88 ± 1.31 %ID/g and the tissue uptake at 48 h (gall bladder, 48 h p.i., n = 6, read-out: Gall bladder uptake) was 1.46 ± 1.09 %ID/g. For the same molecule, the tissue uptake at 4 h (heart, 4 h p.i., n = 4, read-out: Heart uptake) was 0.79 ± 0.11 %ID/g, the tissue uptake at 24 h (heart, 24 h p.i., n = 4, read-out: Heart uptake) was 0.89 ± 0.13 %ID/g and the tissue uptake at 48 h (heart, 48 h p.i., n = 6, read-out: Heart uptake) was 0.79 ± 0.07 %ID/g. It also gave a tissue uptake at 4 h (kidney, 4 h p.i., n = 4, read-out: Kidney uptake) of 50.4 ± 3.08 %ID/g, a tissue uptake at 24 h (kidney, 24 h p.i., n = 4, read-out: Kidney uptake) of 41.6 ± 11.8 %ID/g and a tissue uptake at 48 h (kidney, 48 h p.i., n = 6, read-out: Kidney uptake) of 21.5 ± 7.01 %ID/g. It also gave a tissue uptake at 4 h (large intestines, 4 h p.i., n = 4, read-out: Lg. Intestines uptake) of 5.49 ± 0.47 %ID/g, a tissue uptake at 24 h (large intestines, 24 h p.i., n = 4, read-out: Lg. Intestines uptake) of 5.21 ± 0.82 %ID/g and a tissue uptake at 48 h (large intestines, 48 h p.i., n = 6, read-out: Lg. Intestines uptake) of 2.78 ± 1.08 %ID/g. For the same molecule, the tissue uptake at 4 h (liver, 4 h p.i., n = 4, read-out: Liver uptake) was 1.51 ± 0.29 %ID/g, the tissue uptake at 24 h (liver, 24 h p.i., n = 4, read-out: Liver uptake) was 1.95 ± 0.33 %ID/g and the tissue uptake at 48 h (liver, 48 h p.i., n = 6, read-out: Liver uptake) was 1.8 ± 0.3 %ID/g. The tissue uptake at 4 h (lung, 4 h p.i., n = 4, read-out: Lung uptake) was 2.44 ± 0.3 %ID/g, the tissue uptake at 24 h (lung, 24 h p.i., n = 4, read-out: Lung uptake) was 2.3 ± 0.04 %ID/g and the tissue uptake at 48 h (lung, 48 h p.i., n = 6, read-out: Lung uptake) was 1.67 ± 0.42 %ID/g. The tissue uptake at 4 h (muscle, 4 h p.i., n = 4, read-out: Muscle uptake) was 0.8 ± 0.09 %ID/g, the tissue uptake at 24 h (muscle, 24 h p.i., n = 4, read-out: Muscle uptake) was 0.68 ± 0.06 %ID/g and the tissue uptake at 48 h (muscle, 48 h p.i., n = 6, read-out: Muscle uptake) was 0.44 ± 0.09 %ID/g. It also gave a tissue uptake at 4 h (pancreas, 4 h p.i., n = 4, read-out: Pancreas uptake) of 0.32 ± 0.09 %ID/g, a tissue uptake at 24 h (pancreas, 24 h p.i., n = 4, read-out: Pancreas uptake) of 0.46 ± 0.04 %ID/g and a tissue uptake at 48 h (pancreas, 48 h p.i., n = 6, read-out: Pancreas uptake) of 0.47 ± 0.06 %ID/g. The tissue uptake at 4 h (skin, 4 h p.i., n = 4, read-out: Skin uptake) was 1.92 ± 0.5 %ID/g, the tissue uptake at 24 h (skin, 24 h p.i., n = 4, read-out: Skin uptake) was 1.41 ± 0.25 %ID/g and the tissue uptake at 48 h (skin, 48 h p.i., n = 6, read-out: Skin uptake) was 0.79 ± 0.19 %ID/g. The tissue uptake at 4 h (small intestines, 4 h p.i., n = 4, read-out: Sm. Intestines uptake) was 3.98 ± 0.54 %ID/g, the tissue uptake at 24 h (small intestines, 24 h p.i., n = 4, read-out: Sm. Intestines uptake) was 2.85 ± 0.31 %ID/g and the tissue uptake at 48 h (small intestines, 48 h p.i., n = 6, read-out: Sm. Intestines uptake) was 1.5 ± 0.23 %ID/g. It also gave a tissue uptake at 4 h (spleen, 4 h p.i., n = 4, read-out: Spleen uptake) of 0.19 ± 0.02 %ID/g, a tissue uptake at 24 h (spleen, 24 h p.i., n = 4, read-out: Spleen uptake) of 0.52 ± 0.09 %ID/g and a tissue uptake at 48 h (spleen, 48 h p.i., n = 6, read-out: Spleen uptake) of 0.43 ± 0.08 %ID/g. For the same molecule, the tissue uptake at 4 h (stomach, 4 h p.i., n = 4, read-out: Stomach uptake) was 8.73 ± 0.66 %ID/g, the tissue uptake at 24 h (stomach, 24 h p.i., n = 4, read-out: Stomach uptake) was 5.94 ± 0.9 %ID/g and the tissue uptake at 48 h (stomach, 48 h p.i., n = 6, read-out: Stomach uptake) was 2.78 ± 0.79 %ID/g. The excreta dose per gram or mL at 4 h (urine, 4 h p.i., n = 4) was 15.3 ± 1.2 %ID/g, the excreta dose per gram or mL at 24 h (urine, 24 h p.i., n = 4) was 4.81 ± 0.84 %ID/g and the excreta dose per gram or mL at 48 h (urine, 48 h p.i., n = 5) was 2.04 ± 0.97 %ID/g.
